Reference: patent US20220168396A1, “MULTI-RECEPTOR AGONIST AND MEDICAL USE THEREOF” (published 2022)
Where two headings read alike, the source gives them in different places. Numbered stars: 1 amine (or outer) side, 2 acyl side, 3 side chain; on linkers, the order of the positions; unused ones are H or OH. Square brackets hold non-standard residues; d marks the D form. Side chains are listed from the residue outwards. Ends that are not written are not given here. γGlu = O=C(O)[C@H](CCC(=O)[*:2])N[*:1]; AEEA = NCCOCCOCC(=O)O; Aib = CC(C)(N)C(=O)O

Tests used:
Assay in all cases: cell-based or functional assay
[1] = target: T1, human glucagon-like peptide-1 receptor (human, UniProt P43220)
[2] = target: T2, human glucose-dependent insulinotropic peptide receptor (human, UniProt P48546)
T2 sequence: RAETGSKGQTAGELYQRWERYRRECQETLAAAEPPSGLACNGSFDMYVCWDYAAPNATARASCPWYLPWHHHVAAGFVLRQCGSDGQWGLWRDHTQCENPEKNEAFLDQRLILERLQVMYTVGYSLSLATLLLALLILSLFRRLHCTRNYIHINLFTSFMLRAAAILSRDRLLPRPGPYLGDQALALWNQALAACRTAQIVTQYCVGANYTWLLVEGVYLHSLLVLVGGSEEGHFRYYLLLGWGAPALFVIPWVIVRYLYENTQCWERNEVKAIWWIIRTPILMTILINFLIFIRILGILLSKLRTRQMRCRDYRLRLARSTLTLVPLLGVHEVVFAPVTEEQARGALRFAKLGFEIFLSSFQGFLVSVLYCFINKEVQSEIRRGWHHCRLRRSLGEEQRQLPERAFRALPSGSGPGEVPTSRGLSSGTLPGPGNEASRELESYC

[3] = target: T1, human glucagon-like peptide-1 receptor; remark: listed apart in the source
[4] = target: T2, human glucose-dependent insulinotropic …; remark: listed apart in the source

B1: Compound No. 25 (peptide)
peptide: H-Y[Aib]EGTFTSDYSIYLEKEAAKEFVNWLLAGGPSSGAPPPSK-NH2
modifications: not fully specified (residue 40); printed as H-YAibEGTFTSDYSIYLEKEAAKEFVNWLLAGGPSSGAPPPSK / (OEG-OEG-yGlu-C18-OH)-NH2
[1]
  Activity for human GLP-1R (EC50 nM), cAMP HTRF: 0.031 nM
[2]
  Activity for human GIPR (EC50 nM), cAMP HTRF: 0.059 nM

B2: Compound No. 78 (peptide)
peptide: Y[Aib]EGTFTSDYSIYLEKIAAQEFVQWLLAGGPSSGAPPPS-NH2
modifications: N-terminus assumed
SMILES: CC[C@H](C)[C@H](NC(=O)[C@H](CCCCN)NC(=O)[C@H](CCC(=O)O)NC(=O)[C@H](CC(C)C)NC(=O)[C@H](Cc1ccc(O)cc1)NC(=O)[C@@H](NC(=O)[C@H](CO)NC(=O)[C@H](Cc1ccc(O)cc1)NC(=O)[C@H](CC(=O)O)NC(=O)[C@H](CO)NC(=O)[C@@H](NC(=O)[C@H](Cc1ccccc1)NC(=O)[C@@H](NC(=O)CNC(=O)[C@H](CCC(=O)O)NC(=O)C(C)(C)NC(=O)[C@@H](N)Cc1ccc(O)cc1)[C@@H](C)O)[C@@H](C)O)[C@@H](C)CC)C(=O)N[C@@H](C)C(=O)N[C@@H](C)C(=O)N[C@@H](CCC(N)=O)C(=O)N[C@@H](CCC(=O)O)C(=O)N[C@@H](Cc1ccccc1)C(=O)N[C@H](C(=O)N[C@@H](CCC(N)=O)C(=O)N[C@@H](Cc1c[nH]c2ccccc12)C(=O)N[C@@H](CC(C)C)C(=O)N[C@@H](CC(C)C)C(=O)N[C@@H](C)C(=O)NCC(=O)NCC(=O)N1CCC[C@H]1C(=O)N[C@@H](CO)C(=O)N[C@@H](CO)C(=O)NCC(=O)N[C@@H](C)C(=O)N1CCC[C@H]1C(=O)N1CCC[C@H]1C(=O)N1CCC[C@H]1C(=O)N[C@@H](CO)C(N)=O)C(C)C
[3]
  Activity for human GLP-1R (EC50 nM), cAMP HTRF: 0.008 nM
[4]
  Activity for human GIPR (EC50 nM), cAMP HTRF: 0.012 nM

B3: Compound No. 83 (peptide)
peptide: Y[Aib]EGTFTSDYSIYLEKIAAQEFVNWLIAGGPSSGAPPPSK([AEEA-AEEA-γGlu-C20‑OH])-NH2
[1]
  Activity for human GLP-1R (EC50 nM), cAMP HTRF: 0.028 nM
[2]
  Activity for human GIPR (EC50 nM), cAMP HTRF: 0.032 nM

B4: Compound No. 71 (peptide)
peptide: Y[Aib]EGTFTSDYSIYLEEEAAKEFVNWLLAGGPSSGAPPPS-NH2
modifications: N-terminus assumed
SMILES: CC[C@H](C)[C@H](NC(=O)[C@H](CO)NC(=O)[C@H](Cc1ccc(O)cc1)NC(=O)[C@H](CC(=O)O)NC(=O)[C@H](CO)NC(=O)[C@@H](NC(=O)[C@H](Cc1ccccc1)NC(=O)[C@@H](NC(=O)CNC(=O)[C@H](CCC(=O)O)NC(=O)C(C)(C)NC(=O)[C@@H](N)Cc1ccc(O)cc1)[C@@H](C)O)[C@@H](C)O)C(=O)N[C@@H](Cc1ccc(O)cc1)C(=O)N[C@@H](CC(C)C)C(=O)N[C@@H](CCC(=O)O)C(=O)N[C@@H](CCC(=O)O)C(=O)N[C@@H](CCC(=O)O)C(=O)N[C@@H](C)C(=O)N[C@@H](C)C(=O)N[C@@H](CCCCN)C(=O)N[C@@H](CCC(=O)O)C(=O)N[C@@H](Cc1ccccc1)C(=O)N[C@H](C(=O)N[C@@H](CC(N)=O)C(=O)N[C@@H](Cc1c[nH]c2ccccc12)C(=O)N[C@@H](CC(C)C)C(=O)N[C@@H](CC(C)C)C(=O)N[C@@H](C)C(=O)NCC(=O)NCC(=O)N1CCC[C@H]1C(=O)N[C@@H](CO)C(=O)N[C@@H](CO)C(=O)NCC(=O)N[C@@H](C)C(=O)N1CCC[C@H]1C(=O)N1CCC[C@H]1C(=O)N1CCC[C@H]1C(=O)N[C@@H](CO)C(N)=O)C(C)C
[3]
  Activity for human GLP-1R (EC50 nM), cAMP HTRF: 0.017 nM
[4]
  Activity for human GIPR (EC50 nM), cAMP HTRF: 0.042 nM

B5: Compound No. 2 (peptide)
peptide: Y[Aib]EGTFTSDVSSYLEEEAAKEFIAWLVRGGPSSGAPPPSK-NH2
modifications: N-terminus assumed
SMILES: CC[C@H](C)[C@H](NC(=O)[C@H](Cc1ccccc1)NC(=O)[C@H](CCC(=O)O)NC(=O)[C@H](CCCCN)NC(=O)[C@H](C)NC(=O)[C@H](C)NC(=O)[C@H](CCC(=O)O)NC(=O)[C@H](CCC(=O)O)NC(=O)[C@H](CCC(=O)O)NC(=O)[C@H](CC(C)C)NC(=O)[C@H](Cc1ccc(O)cc1)NC(=O)[C@H](CO)NC(=O)[C@H](CO)NC(=O)[C@@H](NC(=O)[C@H](CC(=O)O)NC(=O)[C@H](CO)NC(=O)[C@@H](NC(=O)[C@H](Cc1ccccc1)NC(=O)[C@@H](NC(=O)CNC(=O)[C@H](CCC(=O)O)NC(=O)C(C)(C)NC(=O)[C@@H](N)Cc1ccc(O)cc1)[C@@H](C)O)[C@@H](C)O)C(C)C)C(=O)N[C@@H](C)C(=O)N[C@@H](Cc1c[nH]c2ccccc12)C(=O)N[C@@H](CC(C)C)C(=O)N[C@H](C(=O)N[C@@H](CCCNC(=N)N)C(=O)NCC(=O)NCC(=O)N1CCC[C@H]1C(=O)N[C@@H](CO)C(=O)N[C@@H](CO)C(=O)NCC(=O)N[C@@H](C)C(=O)N1CCC[C@H]1C(=O)N1CCC[C@H]1C(=O)N1CCC[C@H]1C(=O)N[C@@H](CO)C(=O)N[C@@H](CCCCN)C(N)=O)C(C)C
[3]
  Activity for human GLP-1R (EC50 nM), cAMP HTRF: 0.017 nM
[4]
  Activity for human GIPR (EC50 nM), cAMP HTRF: 3.5 nM

B6: Compound No. 72 (peptide)
peptide: Y[Aib]EGTFTSDYSIYLEEIAAKEFVNWLLAGGPSSGAPPPS-NH2
modifications: N-terminus assumed
SMILES: CC[C@H](C)[C@H](NC(=O)[C@H](CCC(=O)O)NC(=O)[C@H](CCC(=O)O)NC(=O)[C@H](CC(C)C)NC(=O)[C@H](Cc1ccc(O)cc1)NC(=O)[C@@H](NC(=O)[C@H](CO)NC(=O)[C@H](Cc1ccc(O)cc1)NC(=O)[C@H](CC(=O)O)NC(=O)[C@H](CO)NC(=O)[C@@H](NC(=O)[C@H](Cc1ccccc1)NC(=O)[C@@H](NC(=O)CNC(=O)[C@H](CCC(=O)O)NC(=O)C(C)(C)NC(=O)[C@@H](N)Cc1ccc(O)cc1)[C@@H](C)O)[C@@H](C)O)[C@@H](C)CC)C(=O)N[C@@H](C)C(=O)N[C@@H](C)C(=O)N[C@@H](CCCCN)C(=O)N[C@@H](CCC(=O)O)C(=O)N[C@@H](Cc1ccccc1)C(=O)N[C@H](C(=O)N[C@@H](CC(N)=O)C(=O)N[C@@H](Cc1c[nH]c2ccccc12)C(=O)N[C@@H](CC(C)C)C(=O)N[C@@H](CC(C)C)C(=O)N[C@@H](C)C(=O)NCC(=O)NCC(=O)N1CCC[C@H]1C(=O)N[C@@H](CO)C(=O)N[C@@H](CO)C(=O)NCC(=O)N[C@@H](C)C(=O)N1CCC[C@H]1C(=O)N1CCC[C@H]1C(=O)N1CCC[C@H]1C(=O)N[C@@H](CO)C(N)=O)C(C)C
[3]
  Activity for human GLP-1R (EC50 nM), cAMP HTRF: 0.017 nM
[4]
  Activity for human GIPR (EC50 nM), cAMP HTRF: 0.03 nM

B7: Compound No. 70 (peptide)
peptide: Y[Aib]EGTFTSDYSIYLEEIAAQEFVNWLLAGGPSSGAPPPS-NH2
modifications: N-terminus assumed
SMILES: CC[C@H](C)[C@H](NC(=O)[C@H](CCC(=O)O)NC(=O)[C@H](CCC(=O)O)NC(=O)[C@H](CC(C)C)NC(=O)[C@H](Cc1ccc(O)cc1)NC(=O)[C@@H](NC(=O)[C@H](CO)NC(=O)[C@H](Cc1ccc(O)cc1)NC(=O)[C@H](CC(=O)O)NC(=O)[C@H](CO)NC(=O)[C@@H](NC(=O)[C@H](Cc1ccccc1)NC(=O)[C@@H](NC(=O)CNC(=O)[C@H](CCC(=O)O)NC(=O)C(C)(C)NC(=O)[C@@H](N)Cc1ccc(O)cc1)[C@@H](C)O)[C@@H](C)O)[C@@H](C)CC)C(=O)N[C@@H](C)C(=O)N[C@@H](C)C(=O)N[C@@H](CCC(N)=O)C(=O)N[C@@H](CCC(=O)O)C(=O)N[C@@H](Cc1ccccc1)C(=O)N[C@H](C(=O)N[C@@H](CC(N)=O)C(=O)N[C@@H](Cc1c[nH]c2ccccc12)C(=O)N[C@@H](CC(C)C)C(=O)N[C@@H](CC(C)C)C(=O)N[C@@H](C)C(=O)NCC(=O)NCC(=O)N1CCC[C@H]1C(=O)N[C@@H](CO)C(=O)N[C@@H](CO)C(=O)NCC(=O)N[C@@H](C)C(=O)N1CCC[C@H]1C(=O)N1CCC[C@H]1C(=O)N1CCC[C@H]1C(=O)N[C@@H](CO)C(N)=O)C(C)C
[3]
  Activity for human GLP-1R (EC50 nM), cAMP HTRF: 0.017 nM
[4]
  Activity for human GIPR (EC50 nM), cAMP HTRF: 0.017 nM

B8: Compound No. 27 (peptide)
peptide: H-Y[Aib]EGTFTSDYSIYLEKEAAKEFVNWLLAGGPSSGAPPPS-NH2
modifications: not fully specified (residue 20); printed as H-YAibEGTFTSDYSIYLEKEAAK(OEG-OEG-yGlu-C18-OH)EFVNWLLAG / GPSSGAPPPS-NH2
[1]
  Activity for human GLP-1R (EC50 nM), cAMP HTRF: 0.12 nM
[2]
  Activity for human GIPR (EC50 nM), cAMP HTRF: 0.11 nM

B9: Compound No. 80 (peptide)
peptide: Y[Aib]EGTFTSDYSIYLEKIAAQEFVNWLIAGGPSSGAPPPS-NH2
modifications: N-terminus assumed
SMILES: CC[C@H](C)[C@H](NC(=O)[C@H](CCCCN)NC(=O)[C@H](CCC(=O)O)NC(=O)[C@H](CC(C)C)NC(=O)[C@H](Cc1ccc(O)cc1)NC(=O)[C@@H](NC(=O)[C@H](CO)NC(=O)[C@H](Cc1ccc(O)cc1)NC(=O)[C@H](CC(=O)O)NC(=O)[C@H](CO)NC(=O)[C@@H](NC(=O)[C@H](Cc1ccccc1)NC(=O)[C@@H](NC(=O)CNC(=O)[C@H](CCC(=O)O)NC(=O)C(C)(C)NC(=O)[C@@H](N)Cc1ccc(O)cc1)[C@@H](C)O)[C@@H](C)O)[C@@H](C)CC)C(=O)N[C@@H](C)C(=O)N[C@@H](C)C(=O)N[C@@H](CCC(N)=O)C(=O)N[C@@H](CCC(=O)O)C(=O)N[C@@H](Cc1ccccc1)C(=O)N[C@H](C(=O)N[C@@H](CC(N)=O)C(=O)N[C@@H](Cc1c[nH]c2ccccc12)C(=O)N[C@@H](CC(C)C)C(=O)N[C@H](C(=O)N[C@@H](C)C(=O)NCC(=O)NCC(=O)N1CCC[C@H]1C(=O)N[C@@H](CO)C(=O)N[C@@H](CO)C(=O)NCC(=O)N[C@@H](C)C(=O)N1CCC[C@H]1C(=O)N1CCC[C@H]1C(=O)N1CCC[C@H]1C(=O)N[C@@H](CO)C(N)=O)[C@@H](C)CC)C(C)C
[3]
  Activity for human GLP-1R (EC50 nM), cAMP HTRF: 0.008 nM
[4]
  Activity for human GIPR (EC50 nM), cAMP HTRF: 0.008 nM
